Assay results from the supplement of paper PMC10567573.

B1: POLD4 (parent)
chain: ITDSYPVVKRREGPAGHSKGELAP
B2: ZNF263 (parent)
chain: PEASHLRFRRFRFQEAAGPREALS

Variants of: B1
Assay: protein stability index of a GFP-peptide fusion (GPS, HEK-293T) (PSI 1-6); higher = more stable
Details: c terminus: a fixed tail appended
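Also: lentivirally expressed fusions sorted by FACS into six bins by GFP to DsRed ratio, PSI derived from sequencing read proportions per bin multiplied by bin number.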

Variant	protein stability index
ITDSYPVVKRREGPAGHSKGELLP [A23L]	3.2
ITDSYPVVKRREGPAGHSKGELKP [A23K]	3.65
ITDSYPVVKRREGPAGHSKGELRP [A23R]	3.01
ITDSYPVVKRREGPAGHSKGELEP [A23E]	3.21
ITDSYPVVKRREGPAGHSKGELSP [A23S]	3.59
ITDSYPVVKRREGPAGHSKGELHP [A23H]	3
ITDSYPVVKRREGPAGHSKGELWP [A23W]	3.43
ITDSYPVVKRREGPAGHSKGELPP [A23P]	2.96
ITDSYPVVKRREGPAGHSKGELMP [A23M]	2.1
ITDSYPVVKRREGPAGHSKGELVP [A23V]	2.8
ITDSYPVVKRREGPAGHSKGELNP [A23N]	3.05
ITDSYPVVKRREGPAGHSKGELFP [A23F]	3.27
ITDSYPVVKRREGPAGHSNGELAP [K19N]	2.59
ITDSYPVVKRREGPAGHSLGELAP [K19L]	2.81
ITDSYPVVKRREGPAGHSVGELAP [K19V]	3.37
ITDSYPVVKRREGPAGHSDGELAP [K19D]	3.96
ITDSYPVVKRREGPAGHSTGELAP [K19T]	3.62
ITDSYPVVKRREGPAGHSPGELAP [K19P]	4.07
ITDSYPVVKRREGPAGHSGGELAP [K19G]	3.89
ITDSYPVVKRREGPAGHSSGELAP [K19S]	3.46
ITDSYPVVKRREGPAGHSHGELAP [K19H]	3.56
ITDSYPVVKRREGPAGHSFGELAP [K19F]	2.48

Variant	protein stability index
ITDSYPVVKRREGPAGHSQGELAP [K19Q]	3.16
ITDSYPVVKRREGPAGHSRGELAP [K19R]	2.81
ITDSYPVVKRREGPAGHSIGELAP [K19I]	2.79
ITDSYPVVKRREGPAGHSYGELAP [K19Y]	3.06
ITDSYPVVKRREGPAGHSEGELAP [K19E]	3.28
ITDSYPVVKRREGPAGHSMGELAP [K19M]	2.9
ITDSYPVVKRREGPAGHSKGELAV [P24V]	2.19
ITDSYPVVKRREGPAGHSKGELAR [P24R]	2.77
ITDSYPVVKRREGPAGHSKGELAE [P24E]	3.66
ITDSYPVVKRREGPAGHSKGELAM [P24M]	2.89
ITDSYPVVKRREGPAGHSKGELAD [P24D]	2.5
ITDSYPVVKRREGPAGHSKGELAC [P24C]	3.13
ITDSYPVVKRREGPAGHSKGELAQ [P24Q]	4.1
ITDSYPVVKRREGPAGHSKGELAY [P24Y]	2.38
ITDSYPVVKRREGPAGHSKGELAN [P24N]	3.62
ITDSYPVVKRREGPAGHSKGELAL [P24L]	3.56
ITDSYPVVKRREGPAGHSKGELAA [P24A]	2.56
ITDSYPVVKRREGPAGHSKGELAI [P24I]	1.97
ITDSYPVVKRREGPAGHSKGELAW [P24W]	2.73
ITDSYPVVKRREGPAGHSKGELAS [P24S]	3.93
ITDSYPVVKRREGPAGHSKGELAF [P24F]	4.06

Variants of: B2
Assay: as above
Details: c terminus: a fixed tail appended

Variant	protein stability index
GEASHLRFRRFRFQEAAGPREALS [P1G]	2.8
LEASHLRFRRFRFQEAAGPREALS [P1L]	2.53
CEASHLRFRRFRFQEAAGPREALS [P1C]	1.96
SEASHLRFRRFRFQEAAGPREALS [P1S]	3.74
AEASHLRFRRFRFQEAAGPREALS [P1A]	1.75
TEASHLRFRRFRFQEAAGPREALS [P1T]	2.44
HEASHLRFRRFRFQEAAGPREALS [P1H]	2.16
YEASHLRFRRFRFQEAAGPREALS [P1Y]	2.3
KEASHLRFRRFRFQEAAGPREALS [P1K]	2.38
WEASHLRFRRFRFQEAAGPREALS [P1W]	2.08
NEASHLRFRRFRFQEAAGPREALS [P1N]	2.13
DEASHLRFRRFRFQEAAGPREALS [P1D]	2.65
MEASHLRFRRFRFQEAAGPREALS [P1M]	2.73
EEASHLRFRRFRFQEAAGPREALS [P1E]	2.97
QEASHLRFRRFRFQEAAGPREALS [P1Q]	2.79
REASHLRFRRFRFQEAAGPREALS [P1R]	2.97
IEASHLRFRRFRFQEAAGPREALS [P1I]	2.71
FEASHLRFRRFRFQEAAGPREALS [P1F]	3.44
VEASHLRFRRFRFQEAAGPREALS [P1V]	1.85
PMASHLRFRRFRFQEAAGPREALS [E2M]	1.75
PLASHLRFRRFRFQEAAGPREALS [E2L]	1.29
PAASHLRFRRFRFQEAAGPREALS [E2A]	2.88
PRASHLRFRRFRFQEAAGPREALS [E2R]	2.84
PYASHLRFRRFRFQEAAGPREALS [E2Y]	1.82
PKASHLRFRRFRFQEAAGPREALS [E2K]	2.83
PIASHLRFRRFRFQEAAGPREALS [E2I]	1.72

Variant	protein stability index
PCASHLRFRRFRFQEAAGPREALS [E2C]	1.08
PQASHLRFRRFRFQEAAGPREALS [E2Q]	2.11
PDASHLRFRRFRFQEAAGPREALS [E2D]	3.22
PNASHLRFRRFRFQEAAGPREALS [E2N]	2.52
PSASHLRFRRFRFQEAAGPREALS [E2S]	2.52
PFASHLRFRRFRFQEAAGPREALS [E2F]	1.73
PVASHLRFRRFRFQEAAGPREALS [E2V]	2.12
PTASHLRFRRFRFQEAAGPREALS [E2T]	2.4
PHASHLRFRRFRFQEAAGPREALS [E2H]	2
PGASHLRFRRFRFQEAAGPREALS [E2G]	2.12
PWASHLRFRRFRFQEAAGPREALS [E2W]	1.52
PERSHLRFRRFRFQEAAGPREALS [A3R]	2.71
PEPSHLRFRRFRFQEAAGPREALS [A3P]	2.87
PEFSHLRFRRFRFQEAAGPREALS [A3F]	2.8
PEDSHLRFRRFRFQEAAGPREALS [A3D]	3.1
PELSHLRFRRFRFQEAAGPREALS [A3L]	2.4
PEESHLRFRRFRFQEAAGPREALS [A3E]	2.82
PEHSHLRFRRFRFQEAAGPREALS [A3H]	2.84
PEMSHLRFRRFRFQEAAGPREALS [A3M]	3.55
PENSHLRFRRFRFQEAAGPREALS [A3N]	1.98
PECSHLRFRRFRFQEAAGPREALS [A3C]	2.95
PEGSHLRFRRFRFQEAAGPREALS [A3G]	2.95
PEKSHLRFRRFRFQEAAGPREALS [A3K]	2
PEQSHLRFRRFRFQEAAGPREALS [A3Q]	2.55
PEISHLRFRRFRFQEAAGPREALS [A3I]	2.52
